In assay [1] the target is CED3/ICE homology region in MACHα1 (Homo sapiens, UniProt Q14790). As to conditions: 5 mM; bacterial extracts; listed as iodacetic acid.
Assay [2] relates to GST-Fas-IC fusion protein. As to the kind of experiment: In vitro binding to GST-Fas-IC on glutathione beads. Further details: species or system human or mouse. As to conditions: [35S]-labeled protein from HeLa extracts; SDS-PAGE, autoradiography. The method, then: Glutathione S-transferase (GST) fusions with the wild type or a mutated Fas-IC were produced and adsorbed to glutathione-agarose beads; see Boldin et al, 1995; Ausubel et al, 1994; Frangioni and Neel, 1993). Binding of metabolically-labeled FLAG-MORT-1 fusion protein to GST-Fas-IC was assessed by incubating the beads for 2 h at 4° C. with extracts of HeLa cells, metabolically labeled with [^35S]methionine (60 μCi/ml), that express FLAG-MORT-1. The extracts were prepared in a buffer containing 50 mM Tris-HCl, pH 7.5, 150 mM NaCl, 0.1% NP-40; 1 mM dithioteitol, 1 mM EDTA, 1 mM phenylmethylsulfonyl fluoride, 20 μg/ml Aprotonin, […] Leupeptin, 10 mM-sodium fluoride and 0.1 mM sodium vanadate (1 ml per 5×10^5 cells).
Expression of MORT-1 molecules fused at their N terminus with the. FLAG octapeptide (FLAG-MORT-1) yielded in HeLa cells proteins of four distinct sizes—about […], 28, 32, and 34 kD. […] Thus, the in vitro interaction was evaluated by assessing, by autoradiography following SDS-PAGE, the binding of [35] metabolically labeled MORT-1, produced in transfected HeLa cells as a fusion with the FLAG octapeptide (FLAG-MORT-1), to GST, GST fusion with the human or mouse Fas-IC (GST-huFas-IC, GST-mFas-IC) or to GST fusion with Fas-IC containing a Ile to Ala replacement mutation at position 225.

Assay [3] deals with T1, intracellular domain of FAS-R (Homo sapiens, UniProt P25445).
T1 construct: expressed in transfected cells; host or cells: HeLa HtTA-1
T1 sequence (P25445 26-335): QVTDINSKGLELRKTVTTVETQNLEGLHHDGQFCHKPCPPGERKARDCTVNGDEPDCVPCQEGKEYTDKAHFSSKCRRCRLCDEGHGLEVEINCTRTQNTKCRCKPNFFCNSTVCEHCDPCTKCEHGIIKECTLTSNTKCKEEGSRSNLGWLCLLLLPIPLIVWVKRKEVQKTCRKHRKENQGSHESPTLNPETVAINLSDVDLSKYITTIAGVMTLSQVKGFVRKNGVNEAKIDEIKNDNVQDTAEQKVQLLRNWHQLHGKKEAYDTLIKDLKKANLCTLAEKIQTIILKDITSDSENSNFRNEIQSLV
As to the kind of experiment: Cross immunoprecipitation with co-expressed FAS-R in HeLa cells. It counts as binding. The method, then:
(§1) MORT-1, N-linked to the FLAG octapeptide, (FLAG-MORT-1; Eastman Kodak, New Haven, Conn., USA), Fas-IC, FAS-R, p55-R, a chimera comprised of the extracellular domain of p55-R (amino acids 1-168) fused to the transmembrane and intracellular domain of FAS-R (amino acids 153-319), and the luciferase cDNA which serves as a control, were expressed in HeLa cells. Expression was carried out using a tetracycline-controlled expression vector, in a HeLa cell clone (HtTA-1) that expresses a tetracycline-controlled transactivator (Gossen and Bujard, 1992; see also Boldin et al, 1995). Metabolic labeling with [^35S]methionine and [^35S] cysteine (DUPONT, Wilmington, Del., USA and Amersham, Buckinghamshire, England) was performed 18 hours after transfection, by a further 4 h incubation at 37° C. in Dulbecco's modified Eagle's medium lacking methionine and cysteine, but supplemented with 2% dialyzed fetal calf serum. The cells were then lysed in RIPA buffer (10 mM Tris-HCl, pH 7.5, 150 mM NaCl, 1 NP-40, 1% deoxycholate, 0.1% SDS and 1 mM EDTA) and the lysate was precleared by incubation with irrelevant rabbit antiserum (3 μl/ml) and Protein G Sepharose beads (Pharmacia, Uppsala, Sweden; 60 μl/ml). […]

In assay [4] the target is T2, FAS-R-p55-R chimera (p55-FAS) (Homo sapiens, UniProt P19438+P25445).
T2 construct: transmembrane and intracellular domain of FAS-R (amino acids 153-319); expressed in transfected cells; host or cells: HeLa HtTA-1
T2 sequence (P19438+P25445 with tags, fused parts or gaps): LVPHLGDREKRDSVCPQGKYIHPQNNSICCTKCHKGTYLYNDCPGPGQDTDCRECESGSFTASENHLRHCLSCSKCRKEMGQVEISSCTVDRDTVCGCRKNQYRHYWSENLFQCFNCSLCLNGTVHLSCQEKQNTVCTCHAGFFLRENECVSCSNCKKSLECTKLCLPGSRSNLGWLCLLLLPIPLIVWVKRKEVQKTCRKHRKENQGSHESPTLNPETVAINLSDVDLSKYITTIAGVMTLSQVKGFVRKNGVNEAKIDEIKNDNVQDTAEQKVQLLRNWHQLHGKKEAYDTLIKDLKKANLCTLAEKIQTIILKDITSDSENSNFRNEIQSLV
As to the kind of experiment: Cross immunoprecipitation with co-expressed p55-FAS chimera in HeLa cells. Format: binding. Here is the method:
as §1

Sequence of CED3/ICE homology region in MACHα1 (Q14790 217-479): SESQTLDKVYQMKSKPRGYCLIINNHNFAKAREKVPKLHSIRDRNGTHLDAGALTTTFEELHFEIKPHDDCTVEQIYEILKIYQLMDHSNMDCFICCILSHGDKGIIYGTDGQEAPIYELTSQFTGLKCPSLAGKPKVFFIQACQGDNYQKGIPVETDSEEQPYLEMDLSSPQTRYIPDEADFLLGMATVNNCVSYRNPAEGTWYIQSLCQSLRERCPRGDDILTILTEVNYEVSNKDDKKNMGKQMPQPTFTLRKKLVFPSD

As for `O=C(O)CI` [iodoacetic acid], the “effect on cleavage of Ac-DEVD-AMC by the MACHα1 CED3/ICE homology region” value in assay [1] is on record as “blocked”.

B1: FLAG-MORT-1: MORT-1, N-linked to the FLAG octapeptide (protein)
chain: VNQAPECRFGGGILGPLGKRRDLARASEPRTEGARRAGPQPRPLADPAMDPFLVLLHSVSSSLSSSELTELKFLCLGRVVKRKLERVQSGLDLFSMLLEQNDLEPGHTELLRELLASLRRHDLLRRVDDFEAGAAAGAAPGEEDLCAAFNVICDNVGKDWRRLARQLKVSDTKIDSIEDRYPRNLTERVRESLRIWKNTEKENATVAHLVGALRSCQMNLVADLVQEVQQARDLQNRSGAMSPMSWNSDASTSEAS
modifications: left off: small tags and cut ends
notes: MORT-1, N-linked to the FLAG octapeptide
On to B1, for which, in assay [2], the “in vitro binding to GST-Fas-IC” value is listed as “showed ability to bind”. Moreover, in assay [3], the “binding to intracellular domain of FAS-R when co-expressed in HeLa cells” value is listed as “capable of binding”. Moreover, in assay [4], the “binding to intracellular domain of FAS-R-p55-R chimera when co-expressed in HeLa cells” value is recorded as “capable of binding”.

The record behind these values is patent publication US7799901B2, “Modulators of the function of FAS receptors and other proteins” (Yeda Research and Development Co. Ltd., priority 1995, dated 2010).
